These results are taken from patent publication US20190201542A1 (AbbVie / Abbott, published 2019).

The target in this assay is T1, human DLL3 (human, UniProt Q9NYJ7 27-492, limits assumed).
T1 construct: also called hDLL3; DLL3 protein
T1 sequence: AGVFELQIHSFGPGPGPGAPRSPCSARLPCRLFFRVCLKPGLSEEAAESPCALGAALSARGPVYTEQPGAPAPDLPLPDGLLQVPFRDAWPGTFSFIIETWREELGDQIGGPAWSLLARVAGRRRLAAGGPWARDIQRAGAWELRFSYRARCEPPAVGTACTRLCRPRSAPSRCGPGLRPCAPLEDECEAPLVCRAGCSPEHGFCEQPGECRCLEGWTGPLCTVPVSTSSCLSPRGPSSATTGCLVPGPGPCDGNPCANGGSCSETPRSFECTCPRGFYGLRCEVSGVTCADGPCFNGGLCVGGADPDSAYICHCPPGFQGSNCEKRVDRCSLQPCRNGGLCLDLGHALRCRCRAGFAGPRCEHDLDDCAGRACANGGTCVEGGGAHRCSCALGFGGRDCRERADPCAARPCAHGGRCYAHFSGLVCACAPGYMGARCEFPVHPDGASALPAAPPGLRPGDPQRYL
The assay can be described thus: screen on immobilized hDLL3 or h293-hDLL3 cells. The procedure, abridged:
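Hybridoma supernatants from single cells of mice immunized with human DLL3 were screened after 10 days in culture. Binding by flow cytometry was scored positive when above the control. In the solid-phase ELISA, plates coated with DLL3-His at 0.5 μg/ml were probed with HRP anti-mouse IgG and TMB and read at OD 450.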

B1: SC16.111 (antibody, V domains shown)
VH: EVQLQQSGPELEKPGASVKISCKASGYSFTGYNMNWVKQSNGKSLEWIGNIDPYYGGSSYKQKFEGKATLTVDKSSSTAYMQLKSLTSEDSAVYYCARGGSNFFDYWGQGTTLTVSS
VL: DIQMTQSPASLAASVGETVTITCRASENIYYSLAWYQQKQGKSPQLLIYNANSLEDGVPSRFSGSGSGTQYSMKINSMQPEDTATYFCKQTYDVPLTFGAGTKLELK
notes: murine mAb
Take B1: the binding result is recorded as “binds”.

B2: SC16.109 (antibody, V domains shown)
VL: QIVLTQSPAIMSASPGEKVTMTCSASSSVSYMYWYQQKPGSSPRLLIYDTSNLASGVPVRFSGSGSGTSFSLTISRMEAEDTATYYCQEWSGNPLTFGDGTKLELK
V domain: QIQLVQSGPELKKPGETVKISCKASGYTFTNYGMNWVKQAPGKGLKWMGWINTYTGEPAYADDFKGRFAFSLETSASAAYLQINNLKNEDTATFFCANMRPTRGFAYWGQGTLGTVSA
notes: murine mAb
B2: the binding result is “binds”.

B3: SC16.103 (antibody, V domains shown)
VH: QVTLKESGPGILKPSQTLSLTCSFSGFSLSTSGMGIGWIRQPSGKGLEWLAHIWWDDDKYYNPSLKSQLTISKDSSRNQVFLKITSVDTADTATYYCARRGTAYYFDYWGQGTTLTVSS
VL: DIVLTQSPASLAVSLGQRATISCRASKSVSTSGYSYMHWYQQKPGQPPKLLIYLASNLESGVPARFSGSGSGTDFTLNIHPVEEEDAATYYCQHSRELPLTFGAGTKLELK
notes: murine mAb
As to B3, the binding result is on record as “binds”.

B4: SC16.118 (antibody, V domains shown)
VH: EVQLQQSGPDLVKPGASVKISCKASGYSFTGYYMHWVKQSHGKSLEWIGRVNPNNGGTSYNQKFKGKAILTADKSSSTAYMELRSLTSEDSAVYYCARGSYDYAEGWGQGTLVTVSA
VL: DIVLTQSPASLAVSLGQRATISCKASQSVDYDGDSYLTWYQQKPGQPPKLLIYAASNLESGIPARFSGSGSGTDFTLNIHPVEEEDAATYYCQQSNEDPYTFGGGTKLEIK
notes: murine mAb
As to B4, the binding result was “binds”.

B5: SC16.107 (antibody, V domains shown)
VH: EVQLQQSGPELVKPGASVKMSCKASGYTFTNYVMHWVKQKPGQGLEWIGYINPYNDGTKYNEKFKGKATLTSDKSSTTAYMALSSLTSEDSAVYYCAVAYYSNWGFAYWGQGTLVTVSA
VL: DIVMTQSHKFMSTSVGDRVSITCKASQDVNTAVGWYQQKPGQSPKLLIYSASYRYTGVPDRFTGSGSGTDFTFTISSVQAEDLAVYYCQQHYSSPYTFGGGTKVEIK
notes: murine mAb
With B5, the binding result is recorded as “binds”.

B6: SC16.139 (antibody, V domains shown)
VH: EVQLQQSGPELVKPGASVKMSCKASGYTFTNYVMHWVKQKPGQGLEWIGYINPYNDGTKYNEKFKGKATLTSDKSSTTAYMALSSLTSEDSAVYYCAVAYYSNWGFAYWGQGTLVTVSA
VL: DIVMTQSHKFMSTSVGDRVSITCKASQDVNTAVGWYQQKPGQSPKLLIYSASYRYTGVPDRFTGSGSGTDFTFTISSVQAEDLAVYYCQQHYSSPYTFGGGTKLEIK
notes: murine mAb
Consider B6, for which the binding result was “binds”.

B7: SC16.110 (antibody, V domains shown)
VH: EVQLQQSGPGLVRTGASVKISCKASGYSFTGYYMHWVKQSHGKSLEWIGYISCYNGATTYNQNFKGKATFIVDTSSSTAYMQFNSLTSEDSAVYYCARSDGGHAMDYWGQGTSVTVSS
VL: NIVMTQTPKFLLVSAGDRVTITCKASQSVSNDVAWYQQKPGQSPKLLIYYASNRYTGVPDRFTGSGYGTDFTFTISTVQAEDLAVYFCQQDYSSPPTFGGGTKLEIK
notes: murine mAb
As to B7, the binding result is “binds”.

B8: SC16.113 (antibody, V domains shown)
VH: DVKLVESGGGLVKPGGSLKLSCAASGFTFSSYTMSWVRQTPEKRLEWVATISSGGSYPYYPDSVKGRFTISRDNAKNTLYLQMSSLKSEDTAMYYCTRDVYDGYSYWGQGTTLTVSS
VL: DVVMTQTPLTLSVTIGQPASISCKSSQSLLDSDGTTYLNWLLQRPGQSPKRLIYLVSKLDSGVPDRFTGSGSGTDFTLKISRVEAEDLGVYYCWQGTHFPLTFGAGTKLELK
notes: murine mAb
In the case of B8, the binding result is “binds”.

B9: SC16.115 (antibody, V domains shown)
VH: DVKLVESGGGLVKPGGSLKLSCAASGFTFSSYTMSWVRQTPEKRLEWVATISSGGSYPYYPDSVKGRFTISRDNAKNTLYLQMSSLKSEDTAMYYCTRDVYDGYSYWGQGTTLTVSS
VL: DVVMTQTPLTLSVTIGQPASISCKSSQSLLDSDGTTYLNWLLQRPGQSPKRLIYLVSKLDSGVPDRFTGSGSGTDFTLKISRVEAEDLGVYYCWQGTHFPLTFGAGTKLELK
notes: murine mAb
Regarding B9, the binding result is on record as “binds”.

B10: SC16.106 (antibody, V domains shown)
VH: QVQLKQSGPGLVAPSQSLFITCTVSGFSLTSYEINWVRQPPGKGLEWLGVIWTGGSTNYNSALISRLSISKDNSKSLVFLKMNSLQTDDTAIYYCVRGVYAMDYWGQGTSVTVSS
VL: DIKMTQSPSSMYASLGERVTITCKASQDINSYLSWFQQKPGKSPKTLIYRANRLVDGVPSRFSGSGSGQDYSLTISSLEYEDMGIYYCLQYDEFPFTFGSGTKLEIK
notes: murine mAb
B10: the binding result is listed as “binds”.

B11: SC16.116 (antibody, V domains shown)
VH: QVQLKQSGPGRVQPSQSLSITCTVSGFSLTSNGVHWVRQSPGKGLEWLGVLWSGGSTDYNAAFISRLSISKDNYKSQVFFKMNSLQANDTAIYYCARNNNRYGAMDYWGQGTSVTVSS
VL: DIVMTQSPSSLTVTAGEKVTMSCTSSQSLLTSGNQKNYLTWYQQKPGQPPKLLIYWASTRESGVPDRFTGSGSGTDFTLTISSLQAEDLAVYYCQNDYSLTFGAGTKLELK
notes: murine mAb
As for B11, the binding result is “binds”.

B12: SC16.105 (antibody, V domains shown)
VH: QVQLQQPGAELVKPGASVKLSCKASGYTFTSYWMHWVKQRPGQGLEWIGVINPSNGRTNYNEKFKSKATLTVDKSSSTAYMQLSSLTSEDSAVYYCARRRELGTLYAMDYWGQGTSVTVSS
VL: DIVMTQSHKFMSTSVGDRVSITCKASQDVGTAVAWYQQKPGQSPKLLIYWASIRHTGVPDRFTGSGSGTDFTLTISNVQSEDLADYFCQQYSSYPLTFGAGTKLELK
notes: murine mAb
For B12, the binding result is recorded as “binds”.

B13: SC16.10 (antibody, V domains shown)
VH: QVTLKESGPGILQSSQTLSLTCSFSGFSLSTSGMGVGWIRQPSGKGLEWLAHIWWDDVKRYNPVLKSRLTISKDTSSSQVFLKIASVDTADTATYYCARLVDDLYYFDYWGQGTTLTVSS
VL: QIVLTQSPAIMSASLGERVTMTCTASSSVSSSYLHWYQQKPGSSPKLWIYSTSNLASGVPTRFSGSGSGTSYSLTISSMEAEDAATYYCHQYHRSPFTFGSGTKLEIK
notes: murine mAb
Consider B13, for which the binding result is reported as “binds”.

B14: SC16.117 (antibody, V domains shown)
VH: QVQLKESGPGLVAPSQSLSITCTVSGFSLTNYGVHWVRQPPGKGLEWLGVIWAGGITNYNSALMSRLSISEDNSKSQVFLKMNSLQTDDTAMYYCARNLGPYAMDYWGQGTSVTVSS
VL: DIQMNQSPSSLSASLGDTITITCHVSQNINVWLSWYQQKPGNIPKLLIQKASNLHTGVPSRFSGSGSGTGFTLTISSLQPEDIATYYCQQGQSYPFTFGSGTKLEIK
notes: murine mAb
Regarding B14, the binding result is “binds”.

B15: SC16.104 (antibody, V domains shown)
VH: QVQLKESGPDLVQPSQTLSLTCTVSGFSLTFYGVHWVRQPPGKGLEWVGTMGWDDKKYYNSALKSRLSISRDTSKNQVFLKLSSLQTEDTAMYYCTRGGTGFDYWGQGTTLTVSS
VL: QIVLSQSPAILSASPGEKVTMTCRASSSVSYIHWYRQKPGSSPKPWIYATSNLASGVPARFSGSGSGTSYSLTISRVEAEDAATYYCQQWSSNPPTFGAGTKLELK
notes: murine mAb
As for B15, the binding result was “binds”.

B16: SC16.114 (antibody, V domains shown)
VH: EVQLQQSGAELVKPGASVKLSCTASGFNIKDTYIHWVKQRPEQGLEWIGRIDPANGNTKYDPKFQGKATITPDTSSNTAYLQLSSLTSEDTAVYYCARSWRNYGSSFWYFDVWGAGTTVTVSS
VL: QIVLSQSPAILSASPGEKVTMTCRASSSVSYMHWYQQKPGSSPKPWIYATSNLASGVPARFSGSGSGTSYSLTISRVEAEDAATYYCQQWSSNPYTFGGGTKLEIK
notes: murine mAb
As for B16, the binding result is on record as “binds”.
